Measurements as given in US8765433B2, “Alcohol dehydrogenases (ADH) useful for fermentive production of lower alkyl alcohols” (Butamax Advanced Biofuels LLC, priority 2009, dated 2014).

B1: MsADH: Methylocella silvestris BL2 ADH, SEQ ID NO: 35 (protein)
chain: MKALVYHGPGQKALEERPKPQIEASGDAIVKIVKTTICGTDLHILKGDVATCAPGRILGHEGVGIIDSVGAGVTAFQPGDRVLISCISSCGKCDYCRRGLYSHCTTGGWILGNEIDGTQAEYVRTPHADTSLYRIPAGADEEALVMLSDILPTGFECGVLNGKVEPGSTVAIVGAGPIGLAALLTAQFYAPGDIIMIDLDDNRLDVARRFGATHTINSGDGKAAEAVKALTGGIGVDTAIEAVGIPATFLLCEDIVAPGGVIANVGVHGVKVDLHLERLWAHNITITTRLVDTVTTPMLLKTVQSKKLDPLQLITHRFTLDHILDAYDTFSRAADTKALKVIVSA
modifications: Methyloceclla silvestris BL2
B2: AbADH: Acinetobacter baumannii AYE ADH, SEQ ID NO: 36 (protein)
chain: MENIMKAMVYYGDHDIRFEERKKPELIDPTDAIIKMTKTTICGTDLGIYKGKNPEIEQKEQEKNGSFNGRILGHEGIGIVEQIGSSVKNIKVGDKVIVSCVSRCGTCENCAKQLYSHCRNDGGWIMGYMIDGTQAEYVRTPFADTSLYVLPEGLNEDVAVLLSDALPTAHEIGVQNGDIKPGDTVAIVGAGPVGMSALLTAQFYSPSQIIMIDMDENRLAMAKELGATDTINSGTEDAIARVMELTNQRGVDCAIEAVGIEPTWDICQNIVKEGGHLANVGVHGKSVNFSLEKLWIKNLTITTGLVNANTTGMLLKSCCSGKLPMEKLATHHFKFNEIEKAYDVFINAAKEKAMKVIIDF
modifications: Acinetobacter baumannii AYE
B3: GbADH: Geobacillus sp. WCH70 ADH, SEQ ID NO: 37 (protein)
chain: MKALTYLGPGKKEVMEKPKPKIEKETDAIVKITKTTICGTDLHILSGDVPTVEEGRILGHEGVGIIEEVGSGVKNFKKGDRVLISCITSCGKCENCKKGLYAHCEDGGWILGHLIDGTQAEYVRIPHADNSLYPIPEGVDEEALVMLSDILPTGFEIGVLNGKVQPGQTVAIIGAGPVGMAALLTAQFYSPAEIIMVDLDDNRLEVAKKFGATQVVNSADGKAVEKIMELTGGKGVDVAMEAVGIPVTFDICQEIVKPGGYIANIGVHGKSVEFHIEKLWIRNITLTTGLVNTTSTPMLLKTVQSKKLKPEQLITHRFAFADIMKAYEVFGNAAKEKALKVIISND
modifications: Geobacillus sp. WCH70
B4: PzADH: Phenylobacterium zucineum HLK1 ADH, SEQ ID NO: 34 (protein)
chain: MKALVYGGPGQKSLEDRPKPELQAPGDAIVRIVKTTICGTDLHILKGDVATCAPGRILGHEGVGIVDSVGAAVTAFRPGDHVLISCISACGKCDYCRRGMYSHCTTGGWILGNEIDGTQAEYVRTPHADTSLYPVPAGADEEALVMLSDILPTGFECGVLNGKVAPGGTVAIVGAGPIGLAALLTAQFYSPAEIIMIDLDDNRLGIARQFGATQTINSGDGRAAETVKALTGGRGVDTAIEAVGVPATFELCQDLVGPGGVIANIGVHGRKVDLHLDRLWSQNIAITTRLVDTVSTPMLLKTVQSRKLDPSQLITHRFRLDEILAAYDTFARAADTQALKVIIAA
modifications: Phenylobacterium zucineum HLK1
B5: CbADH: Clostridium beijerinckii ADH, SEQ ID NO: 29 (protein, listed as Clostridium beijerinckii)
chain: MKGFAMLGINKLGWIEKERPVAGSYDAIVRPLAVSPCTSDIHTVFEGALGDRKNMILGHEAVGEVVEVGSEVKDFKPGDRVIVPCTTPDWRSLEVQAGFQQHSNGMLAGWKFSNFKDGVFGEYFHVNDADMNLAILPKDMPLENAVMITDMMTTGFHGAELADIQMGSSVVVIGIGAVGLMGIAGAKLRGAGRIIGVGSRPICVEAAKFYGATDILNYKNGHIVDQVMKLTNGKGVDRVIMAGGGSETLSQAVSMVKPGGIISNINYHGSGDALLIPRVEWGCGMAHKTIKGGLCPGGRLRAEMLRDMVVYNRVDLSKLVTHVYHGFDHIEEALLLMKDKPKDLIKAVVIL
B6: ScADH7: Saccharomyces cerevisiae ADH7 alcohol dehydrogenase, SEQ ID NO: 23 (protein, listed as Saccharomyces cerevisiae)
chain: MLYPEKFQGIGISNAKDWKHPKLVSFDPKPFGDHDVDVEIEACGICGSDFHIAVGNWGPVPENQILGHEIIGRVVKVGSKCHTGVKIGDRVGVGAQALACFECERCKSDNEQYCTNDHVLTMWTPYKDGYISQGGFASHVRLHEHFAIQIPENIPSPLAAPLLCGGITVFSPLLRNGCGPGKRVGIVGIGGIGHMGILLAKAMGAEVYAFSRGHSKREDSMKLGADHYIAMLEDKGWTEQYSNALDLLVVCSSSLSKVNFDSIVKIMKIGGSIVSIAAPEVNEKLVLKPLGLMGVSISSSAIGSRKEIEQLLKLVSEKNVKIWVEKLPISEEGVSHAFTRMESGDVKYRFTLVDYDKKFHK
B7: RnADH1: Rattus norvegicus ADH1, SEQ ID NO: 32 (protein, listed as Rattus norvegicus)
chain: MSTAGKVIKCKAAVLWEPHKPFTIEDIEVAPPKAHEVRIKMVATGVCRSDDHAVSGSLFTPLPAVLGHEGAGIVESIGEGVTCVKPGDKVIPLFSPQCGKCRICKHPESNLCCQTKNLTQPKGALLDGTSRFSCRGKPIHHFISTSTFSQYTVVDDIAVAKIDAAAPLDKVCLIGCGFSTGYGSAVQVAKVTPGSTCAVFGLGGVGLSVVIGCKTAGAAKIIAVDINKDKFAKAKELGATDCINPQDYTKPIQEVLQEMTDGGVDFSFEVIGRLDTMTSALLSCHSACGVSVIVGVPPSAQSLSVNPMSLLLGRTWKGAIFGGFKSKDAVPKLVADFMAKKFPLEPLITHVLPFEKINEAFDLLRAGKSIRTVLTF
B8: TADH: Thermus sp. ATN1 ADH, SEQ ID NO: 33 (protein)
chain: MRAVVFENKERVAVKEVNAPRLQHPLDALVRVHLAGICGSDLHLYHGKIPVLPGSVLGHEFVGQVEAVGEGIQDLQPGDWVVGPFHIACGTCPYCRRHQYNLCERGGVYGYGPMFGNLQGAQAEILRVPFSNVNLRKLPPNLSPERAIFAGDILSTAYGGLIQGQLRPGDSVAVIGAGPVGLMAIEVAQVLGASKILAIDRIPERLERAASLGAIPINAEQENPVRRVRSETNDEGPDLVLEAVGGAATLSLALEMVRPGGRVSAVGVDNAPSFPFPLASGLVKDLTFRIGLANVHLYIDAVLALLASGRLQPERIVSHYLPLEEAPRGYELFDRKEALKVLLVVRG
modifications: Thermus sp. ATN1
B9: HLADH: Horse-liver ADH (A-6128) purchased from Sigma; control polypeptide, SEQ ID NO: 21 (protein, listed as Equus caballus)
chain: MSTAGKVIKCKAAVLWEEKKPFSIEEVEVAPPKAHEVRIKMVATGICRSDDHVVSGTLVTPLPVIAGHEAAGIVESIGEGVTTVRPGDKVIPLFTPQCGKCRVCKHPEGNFCLKNDLSMPRGTMQDGTSRFTCRGKPIHHFLGTSTFSQYTVVDEISVAKIDAASPLEKVCLIGCGFSTGYGSAVKVAKVTQGSTCAVFGLGGVGLSVIMGCKAAGAARIIGVDINKDKFAKAKEVGATECVNPQDYKKPIQEVLTEMSNGGVDFSFEVIGRLDTMVTALSCCQEAYGVSVIVGVPPDSQNLSMNPMLLLSGRTWKGAIFGGFKSKDSVPKLVADFMAKKFALDPLITHVLPFEKINEGFDLLRSGESIRTILTF
B10: SadB: Achromobacter xylosoxidans Secondary Alcohol Dehydrogenase B; control polypeptide, SEQ ID NO: 26 (protein)
chain: MKALVYHGDHKISLEDKPKPTLQKPTDVVVRVLKTTICGTDLGIYKGKNPEVADGRILGHEGVGVIEEVGESVTQFKKGDKVLISCVTSCGSCDYCKKQLYSHCRDGGWILGYMIDGVQAEYVRIPHADNSLYKIPQTIDDEIAVLLSDILPTGHEIGVQYGNVQPGDAVAIVGAGPVGMSVLLTAQFYSPSTIIVIDMDENRLQLAKELGATHTINSGTENVVEAVHRIAAEGVDVAIEAVGIPATWDICQEIVKPGAHIANVGVHGVKVDFEIQKLWIKNLTITTGLVNTNTTPMLMKVASTDKLPLKKMITHRFELAEIEHAYQVFLNGAKEKAMKIILSNAGAA
modifications: Achromobacter xylosoxidans

experiment: Isobutanol oxidation assay; assay type: biochemical; settings: Table 8
Experimental: (§1) As a routine practice, the crude extracts and purified proteins were assayed for butanol oxidation activity, in order to ensure that the recombinant proteins were active throughout the purification process. […] Alcohol oxidation activities were carried out in 50 mM sodium phosphate buffer at pH 8.8 and aldehyde reduction reactions were assayed in 190 mM potassium phosphate buffer at pH 7.0. Depending on the nature of reaction being carried out, the enzyme and cofactor stocks were diluted in the reaction buffers at the respective pHs. Either buffer or cell extract prepared from the proprietary E. coli strain (with no ADH plasmid) was used as the negative control for assays with purified protein and cell-free extracts, respectively.
Kinetic constants of the ADH enzymes were calculated and compared to identify those candidate ADH enzymes with the most desirable properties for the conversion of isobutyraldehyde to isobutanol in the last step of the engineered pathway for isobutanol production. The assays for determining the kinetic constants were carried out using initial rates from the assays described above. […] The concentration of a given enzyme was such that it was conducive for the measurement of initial velocities over a 1-min time course. For each enzyme, Michaelis-Menten plots were generated with a broad range of substrate concentrations. Rough estimates of KM were obtained, based on which the assays were redesigned so as to use substrate concentrations in the range 0.5 to 10 times the KM value, to be able to obtain the appropriate kinetic constants. […] When calculating the KI for isobutanol, the same reactions were carried out in the presence of varying concentrations of isobutanol (generally 0-535 mM) in the reaction (see FIG. 7, for example). Reactions with isobutanol substrate were performed at 30° C. in 50 mM Sodium phosphate buffer, pH 8.8, containing 7.5 mM NAD. The Enzyme kinetics module (Version 1.3) of SigmaPlot 11 (Systat Software, Inc.) was used to fit data to Michaelis-Menten equations and calculate the kinetic constants. The kcat/KM is derived from the individual numbers of kcat and KM and not an experimentally determined value. The ratios of the KM, KI, and kcat/KM for each candidate enzyme as compared to the same parameter for SadB are given in Table 9.

| Molecule | conversion of isobutanol to isobutyraldehyde |
| --- | --- |
| B1 | No measureable |
| B2 | No measureable |
| B3 | No measureable |
| B4 | No measureable |

experiment: Cofactor specificity in isobutyraldehyde reduction reactions; assay type: biochemical; settings: Table 7
Experimental: as §1
In initial experiments, there were insufficient levels of protein expression with EhADH1 and RpADH8. […] It is believed that one of skill in the art could further optimize expression and assay conditions for these candidates. Sufficient amounts of active protein could be purified with all other enzymes for which data are presented. […]

| Molecule | Other enzymatic properties and cofactor preference |
| --- | --- |
| B5 | NADPH specific |
| B6 | NADPH specific |
| B7 | NADH specific |
| B8 | NADH specific |

same assay, conditions: Table 8

| Molecule | Other enzymatic properties and cofactor preference |
| --- | --- |
| B1 | NADH specific |
| B2 | NADH specific |
| B3 | NADPH specific |
| B4 | NADH specific |

same assay, conditions: isobutyraldehyde reduction, NADH or NADPH as cofactor

| Molecule | COFACTOR PREFERENCE |
| --- | --- |
| B1 | NADH |
| B2 | NADH |
| B9 | NADH |
| B5 | NADPH |
| B6 | NADPH |
| B3 | NADPH |
| B7 | NADH |
| B10 | NADH |
| B4 | NADH |
| B8 | NADH |
